Data as given in patent publication US20250076311A1 (Chugai, published 2025).
Where a chain is given by its changes, count along the chain named. Each block holds one binder with its values, some of them ahead of it.

Assays:
[1] = biological target: T1, cynomolgus monkey FcγRIIa1 extracellular domain, His-tagged (cynomolgus monkey); assay: SPR Biacore, KD(SG1)/KD(variant)
T1 construct: also called cyno FcγRIIa1; cynoFcgRIIa1; not shown: C-terminal His-tag
T1 chain: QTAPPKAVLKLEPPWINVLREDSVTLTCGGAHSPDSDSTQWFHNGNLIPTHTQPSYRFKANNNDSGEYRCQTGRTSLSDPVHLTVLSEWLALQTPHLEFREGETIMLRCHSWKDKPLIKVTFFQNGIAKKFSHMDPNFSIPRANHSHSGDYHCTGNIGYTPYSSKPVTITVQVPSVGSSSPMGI
Experimental: (§1) The kinetic analysis of interactions between these antibodies and FcγR was carried out using BIACORE® T200 or BIACORE® 4000 (GE Healthcare). HBS-EP+ (GE Healthcare) was used as the running buffer, and the measurement temperature was set to 25° C. […] After the measurement, the antibody captured on the chip was washed off by allowing reaction with 10 mM glycine-HCl, pH1.5 and 25 mM NaOH so that the chip was regenerated and used repeatedly. The sensorgrams obtained as measurement results were analyzed by the 1:1 Langmuir binding model using the BIACORE® Evaluation Software to calculate the binding rate constant ka (L/mol/s) and dissociation rate constant kd (1/s), and the dissociation constant KD (mol/L) was calculated from these values. […] Regarding such interactions, KD values were calculated using the following 1:1 binding model described in BIACORE® T100 Software Handbook BR1006-48 Edition AE.

[2] = biological target: T2, cynomolgus monkey FcγRIIa2 extracellular domain, His-tagged (cynomolgus monkey); assay: SPR Biacore, antibody captured, FcgR analyte
T2 construct: also called cyno FcγRIIa2; cynoFcgRIIa2; not shown: C-terminal His-tag
T2 chain: T1 chain with P95T, T121A, I127K, A128S, K130N, D135N, R142Q

[3] = biological target: T3, cynomolgus monkey FcγRIIa3 extracellular domain, His-tagged (cynomolgus monkey); assay: SPR Biacore, KD(SG1)/KD(variant)
T3 construct: also called cyno FcγRIIa3; cynoFcgRIIa3; not shown: C-terminal His-tag
T3 chain: T1 chain with P95T, T121A, A128S, H133P, D135N
Experimental: as §1

[4] = biological target: T4, human FcγRIIb extracellular domain, His-tagged (human, UniProt P31994 43-217); assay: SPR Biacore, KD(SG1)/KD(variant)
T4 construct: also called FcgRIIb (human); not shown: C-terminal His-tag
T4 sequence: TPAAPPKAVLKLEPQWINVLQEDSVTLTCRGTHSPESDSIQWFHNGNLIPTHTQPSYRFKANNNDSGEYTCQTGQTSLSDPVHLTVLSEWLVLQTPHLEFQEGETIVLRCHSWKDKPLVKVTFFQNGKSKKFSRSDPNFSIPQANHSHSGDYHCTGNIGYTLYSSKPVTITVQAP
Experimental: as §1

[5] = biological target: T4, human FcγRIIb extracellular domain, …; assay: SPR Biacore, antibody captured, FcgR analyte
[6] = biological target: T5, cynomolgus monkey FcγRIIIaS extracellular domain with C-terminal His-tag (cynomolgus monkey, UniProt Q8SPW2 21-206 at identity 1.00)); assay: SPR; KD of SG1 / KD of variant
T5 construct: also called cyno FcγRIIIaS; FcgRIIIaS
T5 chain: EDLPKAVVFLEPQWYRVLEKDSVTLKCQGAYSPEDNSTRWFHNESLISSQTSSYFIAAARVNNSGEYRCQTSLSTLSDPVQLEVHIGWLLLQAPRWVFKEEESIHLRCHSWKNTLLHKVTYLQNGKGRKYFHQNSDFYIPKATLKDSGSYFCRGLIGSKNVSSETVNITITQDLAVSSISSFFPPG

[7] = biological target: T6, cynomolgus monkey FcγRIIa1 extracellular domain with C-terminal His-tag (cynomolgus monkey); assay: SPR; KD of SG1 / KD of variant
T6 construct: also called cyno FcγRIIa1; FcgRIIa1
T6 chain: T1 chain

[8] = biological target: T7, cynomolgus monkey FcγRIIa3 extracellular domain with C-terminal His-tag (cynomolgus monkey); assay: SPR; KD of SG1 / KD of variant
T7 construct: also called cyno FcγRIIa3; FcgRIIa3
T7 chain: T1 chain with P95T, T121A, A128S, H133P, D135N

[9] = biological target: T8, human FcγRIIIaV extracellular domain with C-terminal His-tag (human, UniProt P08637 17-208); assay: SPR; KD of SG1 / KD of variant
T8 construct: also called human FcgRIIIaV; FcgRIIIaV
T8 sequence (P08637 17-208 F176V): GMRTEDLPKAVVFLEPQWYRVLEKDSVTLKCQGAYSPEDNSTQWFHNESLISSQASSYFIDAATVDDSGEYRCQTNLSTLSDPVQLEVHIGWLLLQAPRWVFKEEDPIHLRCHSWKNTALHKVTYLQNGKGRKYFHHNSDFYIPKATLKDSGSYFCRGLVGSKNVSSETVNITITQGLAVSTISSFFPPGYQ

[10] = biological target: T9, cynomolgus monkey FcγRIIb extracellular domain with C-terminal His-tag (cynomolgus monkey); assay: SPR; KD of SG1 / KD of variant
T9 construct: also called cyno FcγRIIb; cynoFcγRIIb
T9 chain: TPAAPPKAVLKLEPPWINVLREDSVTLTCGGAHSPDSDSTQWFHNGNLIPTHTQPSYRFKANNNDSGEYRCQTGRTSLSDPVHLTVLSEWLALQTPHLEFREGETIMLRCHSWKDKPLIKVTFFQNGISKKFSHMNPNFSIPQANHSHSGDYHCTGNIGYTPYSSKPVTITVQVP

[11] = biological target: T10, cynomolgus monkey FcγRIIa2 extracellular domain with C-terminal His-tag (cynomolgus monkey); assay: SPR; KD of SG1 / KD of variant
T10 construct: also called cyno FcγRIIa2; FcgRIIa2
T10 chain: T1 chain with P95T, T121A, I127K, A128S, K130N, D135N, R142Q

[12] = biological target: T11, human FcγRIIb extracellular domain with C-terminal His-tag (human, UniProt P31994 43-217); assay: SPR; KD of SG1 / KD of variant
T11 construct: also called human FcgRIIb; FcgRIIb
T11 sequence: T4 sequence

[13] = biological target: T12, human FcγRIIaR extracellular domain with C-terminal His-tag (human, UniProt P12318 34-217); assay: SPR; KD of SG1 / KD of variant
T12 construct: also called human FcγRIIa (type R); FcgRIIaR
T12 chain: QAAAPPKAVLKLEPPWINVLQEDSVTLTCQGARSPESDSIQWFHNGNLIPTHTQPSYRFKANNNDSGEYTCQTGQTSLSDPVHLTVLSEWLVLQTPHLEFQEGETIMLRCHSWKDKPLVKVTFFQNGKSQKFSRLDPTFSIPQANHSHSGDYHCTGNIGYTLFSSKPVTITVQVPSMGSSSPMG

[14] = biological target: T13, human FcγRIIaH extracellular domain with C-terminal His-tag (human, UniProt P12318 34-217); assay: SPR; KD of SG1 / KD of variant
T13 construct: also called human FcγRIIa (type H); FcgRIIaH
T13 sequence: T12 chain with R134H

[15] = biological target: T14, human FcγRIIIaV extracellular domain with C-terminal His-tag (human, UniProt P08637 17-208); assay: SPR (Biacore), antibody captured, FcgR as analyte
T14 construct: also called human FcgRIIIaV
Experimental: as §1
T14 sequence (P08637 17-208 F176V): as the sequence (P08637 17-208 F176V) above

[16] = biological target: T15, cynomolgus monkey FcγRIIa1 extracellular domain with C-terminal His-tag (cynomolgus monkey); assay: SPR (Biacore), antibody captured, FcgR as analyte
T15 construct: also called cyno FcgRIIa1; cynoFcγRIIa1
T15 chain: T1 chain
Experimental: as §1

B1: M103205H795-MY070/M103202L889-SK1 (antibody, human IgG1, kappa, name in EU numbering)
heavy: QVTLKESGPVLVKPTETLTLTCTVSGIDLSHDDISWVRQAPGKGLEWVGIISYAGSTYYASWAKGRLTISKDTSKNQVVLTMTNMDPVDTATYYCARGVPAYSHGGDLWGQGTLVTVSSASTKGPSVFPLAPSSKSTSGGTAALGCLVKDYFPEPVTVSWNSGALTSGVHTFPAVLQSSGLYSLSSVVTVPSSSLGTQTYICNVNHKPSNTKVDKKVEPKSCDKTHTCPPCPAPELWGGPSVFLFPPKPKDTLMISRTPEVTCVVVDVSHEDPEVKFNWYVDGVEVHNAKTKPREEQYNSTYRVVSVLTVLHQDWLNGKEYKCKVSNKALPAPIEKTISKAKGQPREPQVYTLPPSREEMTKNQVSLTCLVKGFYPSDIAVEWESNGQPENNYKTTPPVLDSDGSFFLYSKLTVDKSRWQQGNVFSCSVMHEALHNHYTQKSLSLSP
light: DIVMTQSPATLSLSPGERATLSCTSSQSVYHANWLSWFQQKPGQPPKLLIYWASTLAYGVPSRFSGSGSGTDFTLTISSLQPEDAATYYCAGGYGGGRYAFGQGTKVEIKRTVAAPSVFIFPPSDEQLKSGTASVVCLLNNFYPREAKVQWKVDNALQSGNSQESVTEQDSKDSTYSLSSTLTLSKADYEKHKVYACEVTHQGLSSPVTKSFNRGEC
notes: Substitution introduced into M103205H795-SG1; EU numbering
KD fold (SG1 = 1) [1]: 1 fold | Kd [2]: 2800 nM

B2: M103205H795-MY071/M103202L889-SK1 (antibody, human IgG1, kappa, name in EU numbering)
heavy: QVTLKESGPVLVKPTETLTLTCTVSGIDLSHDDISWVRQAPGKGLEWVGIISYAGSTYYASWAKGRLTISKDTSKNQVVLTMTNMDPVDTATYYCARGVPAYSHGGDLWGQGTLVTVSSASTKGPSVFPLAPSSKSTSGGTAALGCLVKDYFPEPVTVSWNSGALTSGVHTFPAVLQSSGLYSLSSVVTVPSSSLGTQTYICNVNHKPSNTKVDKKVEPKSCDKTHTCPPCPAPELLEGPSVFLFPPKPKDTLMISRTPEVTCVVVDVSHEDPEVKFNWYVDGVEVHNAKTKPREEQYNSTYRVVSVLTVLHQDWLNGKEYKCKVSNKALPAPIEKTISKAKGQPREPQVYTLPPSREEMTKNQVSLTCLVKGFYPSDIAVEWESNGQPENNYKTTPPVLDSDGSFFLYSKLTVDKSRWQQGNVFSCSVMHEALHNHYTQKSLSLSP
light: B1 light
notes: as for B1
KD fold (SG1 = 1) [3]: 1.8 fold | KD fold (SG1 = 1) [4]: 1.5 fold | Kd [5]: 3100 nM

B3: M103205H795-MY196/M103202L889-SK1 (antibody, human IgG1, kappa, name in EU numbering)
heavy: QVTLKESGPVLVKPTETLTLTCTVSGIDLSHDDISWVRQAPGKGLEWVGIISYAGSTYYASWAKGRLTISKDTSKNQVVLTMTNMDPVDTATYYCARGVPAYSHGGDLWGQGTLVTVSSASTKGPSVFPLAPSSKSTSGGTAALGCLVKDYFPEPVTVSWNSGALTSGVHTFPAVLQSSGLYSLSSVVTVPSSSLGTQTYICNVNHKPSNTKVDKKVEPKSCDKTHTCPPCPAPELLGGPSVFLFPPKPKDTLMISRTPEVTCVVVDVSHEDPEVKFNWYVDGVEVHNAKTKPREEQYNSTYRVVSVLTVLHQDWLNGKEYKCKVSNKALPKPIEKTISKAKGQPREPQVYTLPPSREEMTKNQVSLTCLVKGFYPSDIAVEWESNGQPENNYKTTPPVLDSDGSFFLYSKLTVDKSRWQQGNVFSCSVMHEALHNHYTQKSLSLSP
light: B1 light
notes: as for B1
Kd [5]: 3200 nM

B5: M103205H795-MY392 / M103202L889-SK1 (antibody, human IgG1, kappa, name in EU numbering)
heavy: QVTLKESGPVLVKPTETLTLTCTVSGIDLSHDDISWVRQAPGKGLEWVGIISYAGSTYYASWAKGRLTISKDTSKNQVVLTMTNMDPVDTATYYCARGVPAYSHGGDLWGQGTLVTVSSASTKGPSVFPLAPSSKSTSGGTAALGCLVKDYFPEPVTVSWNSGALTSGVHTFPAVLQSSGLYSLSSVVTVPSSSLGTQTYICNVNHKPSNTKVDKKVEPKSCDKTHTCPPCPAPELLTGPSVFLFPPKPKDTLMISRTPEVTCVVVDVSDEDPEVKFNWYVDGVEVHNAKTKPREEQYNLTYRVVSVLTVLHQDWLNGKEYKCKVSNKALPKPIEKTISKAKGQPREPQVYTLPPSREEMTKNQVSLTCLVKGFYPSDIAVEWESNGQPENNYKTTPPVLDSDGSFFLYSKLTVDKSRWQQGNVFSCSVMHEALHNHYTQKSLSLSP
light: B1 light
Kd [15]: 9300 nM

B6: M103205H795-MY535 / M103202L889-SK1 (antibody, human IgG1, kappa, name in EU numbering)
heavy: B5 heavy with A233G, L236W, L300S
light: B1 light
Kd [16]: 1500 nM | Kd [15]: 5200 nM

Continued, values first:

KD fold (SG1 = 1) [6]: 0.12 fold | KD fold (SG1 = 1) [7]: 2 fold | KD fold (SG1 = 1) [8]: 2.5 fold | KD fold (SG1 = 1) [9]: 0.05 fold | KD fold (SG1 = 1) [10]: 3.1 fold | KD fold (SG1 = 1) [11]: 3 fold | KD fold (SG1 = 1) [12]: 1.2 fold | KD fold (SG1 = 1) [13]: 2 fold | KD fold (SG1 = 1) [14]: 6.3 fold
B4: M103205H795-MY285 (heavy chain) with M103202L889-SK1 (light chain) (antibody, human IgG1, kappa, name in EU numbering)
heavy: B5 heavy with T238I, Q297L, L300S
light: B1 light
notes: Substitutions introduced into M103205H795-SG1; positions in EU numbering

Kd [16]: 1200 nM | Kd [15]: 2700 nM
B7: M103205H795-MY536 / M103202L889-SK1 (antibody, human IgG1, kappa, name in EU numbering)
heavy: B5 heavy with A233G, L236W, S241V, L300S
light: B1 light
